This data set concerns the target T1, SPL15 SBP domain (His-tagged) (Arabidopsis thaliana, UniProt Q9M2Q6 50-139).
T1 sequence: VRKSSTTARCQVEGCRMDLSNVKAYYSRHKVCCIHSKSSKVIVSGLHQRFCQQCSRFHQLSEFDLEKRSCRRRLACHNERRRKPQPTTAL
Put plainly: EMSA; ~500 ng protein, ~20 fmol DNA; displaced by 100-fold unlabeled N1; 10 mM Tris pH 7.5, 50 mM KCl, 5 mM MgCl (so in the source), 5 mM DTT, 2.5% glycerol, 0.05% NP-40, 25 C 30 min; 7.5% gel in 0.5x TBE at 4 C. Conditions: protein: recombinant; tags: His tag (pET28a, BamHI/SalI; 16.3 kD fusion); label: digoxigenin (DIG Gel Shift kit); blunt.

B1: miR156b promoter 46-mer (R156b-bx1) (dsDNA)
DNA 1: TAATTAGTGAAACTGTACAATGTACAATGTACCAATGCCATTAATG
DNA 2: CATTAATGGCATTGGTACATTGTACATTGTACAGTTTCACTAATTA
For the molecule B1, the binding result was “binds”.

(Values after paper PMC3520712, “Arabidopsis mutant sk156 reveals complex regulation of SPL15 in a miR156-controlled gene network”.)
